B1: CPEB3 Ribozyme (parent)
chain: GGGGGCCACAGCAGAAGCGUUCACGUCGCGGCCCCUGUCAGAUUCUGGUGAAUCUGCGAAUUCUGCUGU

The variants in this series derive from B1. The series can be described thus: self-cleavage, relative activity (ratio to wild type); higher = more cleavage; co-transcriptional.
For the variant GGGGGCCACAGCAGAAGCGUUCACGUCGCGGCCCCUGUCAGAUUCUGGUCAAUCUGCGACUUCUGCUGU [G50C A60C], the self-cleavage came to 0.34.

As for GGGGGCCACAGCAGAAGCGUUCACGUCGCGGCCCCUGUCAGAUUCUGGUCAAUCUGCGAUUUCUGCUGU [G50C A60U], the self-cleavage stood at 0.456.

With GGGGGCCACAGCAGAAGCGUUCACGUCGCGGCCCCUGUCAGAUUCUGGUCUAUCUGCGAAUUCUGCUGU [G50C A51U], the self-cleavage came to 0.942.

Take GGGGGCCACAGCAGAAGCGUUCACGUCGCGGCCCCUGUCAGAUUCUGGUAAAUCAGCGAAUUCUGCUGU [G50A U55A]: the self-cleavage was determined as 0.912.

For the variant GGGGGCCACAGCAGAAGCGUUCACGUCGCGGCCCCUGUCAGAUUCUGGUCAAUCUGCGAAUUUUGCUGU [G50C C63U], the self-cleavage came out at 0.97.

Turning to GGGGGCCACAGCAGAAGCGUUCACGUCGCGGCCCCUGUCAGAUUCUGGUCAAUCUGCGAAUUAUGCUGU [G50C C63A], the self-cleavage came to 0.813.

With GGGGGCCACAGCAGAAGCGUUCACGUCGCGGCCCCUGUCAGAUUCUGGUCAAUCUGCGAAUUGUGCUGU [G50C C63G], the self-cleavage amounted to 0.738.

GGGGGCCACAGCAGAAGCGUUCACGUCGCGGCCCCUGUCAGAUUCUGGUAAAUCUGCGAAUUCUUCUGU [G50A G65U]: the self-cleavage stood at 0.882.

On to GGGGGCCACAGCAGAAGCGUUCACGUCGCGGCCCCUGUCAGAUUCUGGUUAAUAUGCGAAUUCUGCUGU [G50U C54A], for which the self-cleavage is 0.858.

As to GGGGGCCACAGCAGAAGCGUUCACGUCGCGGCCCCUGUCAGAUUCUGGUUAAUUUGCGAAUUCUGCUGU [G50U C54U], the self-cleavage is 0.968.

Regarding GGGGGCCACAGCAGAAGCGUUCACGUCGCGGCCCCUGUCAGAUUCUGGUCAAUCUGCGAAUUCUGCUUU [G50C G68U], the self-cleavage was 0.973.

Consider GGGGGCCACAGCAGAAGCGUUCACGUCGCGGCCCCUGUCAGAUUCUGGUCAAUCUGCGAAUUCUGCUCU [G50C G68C], for which the self-cleavage was found to be 0.964.

Take GGGGGCCACAGCAGAAGCGUUCACGUCGCGGCCCCUGUCAGAUUCUGGUUAAUCUACGAAUUCUGCUGU [G50U G56A]: the self-cleavage was 0.928.

For GGGGGCCACAGCAGAAGCGUUCACGUCGCGGCCCCUGUCAGAUUCUGGUUAAUCUUCGAAUUCUGCUGU [G50U G56U], the self-cleavage was determined as 0.91.

As to GGGGGCCACAGCAGAAGCGUUCACGUCGCGGCCCCUGUCAGAUUCUGGUCAAUCUGCGCAUUCUGCUGU [G50C A59C], the self-cleavage came to 0.68.

With GGGGGCCACAGCAGAAGCGUUCACGUCGCGGCCCCUGUCAGAUUCUGGUCAAUCUGCGUAUUCUGCUGU [G50C A59U], the self-cleavage was 0.767.

On to GGGGGCCACAGCAGAAGCGUUCACGUCGCGGCCCCUGUCAGAUUCUGGUCAAUCUGCGGAUUCUGCUGU [G50C A59G], for which the self-cleavage was 1.03.

On to GGGGGCCACAGCAGAAGCGUUCACGUCGCGGCCCCUGUCAGAUUCUGGUCAAUCUGCGAAGUCUGCUGU [G50C U61G], for which the self-cleavage stood at 0.526.

GGGGGCCACAGCAGAAGCGUUCACGUCGCGGCCCCUGUCAGAUUCUGGUCAAUCUGCGAACUCUGCUGU [G50C U61C]: the self-cleavage worked out at 0.762.

Turning to GGGGGCCACAGCAGAAGCGUUCACGUCGCGGCCCCUGUCAGAUUCUGGUCAAUCUGCGAAAUCUGCUGU [G50C U61A], the self-cleavage was found to be 0.823.

As to GGGGGCCACAGCAGAAGCGUUCACGUCGCGGCCCCUGUCAGAUUCUGGUCAAUCUACGAAUUCUGCUGU [G50C G56A], the self-cleavage came to 0.831.

Turning to GGGGGCCACAGCAGAAGCGUUCACGUCGCGGCCCCUGUCAGAUUCUGGUCAAUCUUCGAAUUCUGCUGU [G50C G56U], the self-cleavage amounted to 0.842.

With GGGGGCCACAGCAGAAGCGUUCACGUCGCGGCCCCUGUCAGAUUCUGGUAAAUCUGCGAAUUCUGCUGG [G50A U69G], the self-cleavage was 1.06.

GGGGGCCACAGCAGAAGCGUUCACGUCGCGGCCCCUGUCAGAUUCUGGUAAAUCUGCGAAUUCUGCUGC [G50A U69C]: the self-cleavage stood at 1.07.

As to GGGGGCCACAGCAGAAGCGUUCACGUCGCGGCCCCUGUCAGAUUCUGGUUAAUCUGCGAAUUCUGCUAU [G50U G68A], the self-cleavage was 1.01.

On to GGGGGCCACAGCAGAAGCGUUCACGUCGCGGCCCCUGUCAGAUUCUGGUUAUUCUGCGAAUUCUGCUGU [G50U A52U], for which the self-cleavage was 0.94.

As to GGGGGCCACAGCAGAAGCGUUCACGUCGCGGCCCCUGUCAGAUUCUGGUUACUCUGCGAAUUCUGCUGU [G50U A52C], the self-cleavage is 0.979.

In the case of GGGGGCCACAGCAGAAGCGUUCACGUCGCGGCCCCUGUCAGAUUCUGGUCAAUCUGCGAAUUCGGCUGU [G50C U64G], the self-cleavage was 0.844.

In the case of GGGGGCCACAGCAGAAGCGUUCACGUCGCGGCCCCUGUCAGAUUCUGGUCAAUCUGCGAAUUCCGCUGU [G50C U64C], the self-cleavage was 0.823.

As for GGGGGCCACAGCAGAAGCGUUCACGUCGCGGCCCCUGUCAGAUUCUGGUAAAUCUGCGAAUUCUGCUCU [G50A G68C], the self-cleavage amounted to 1.02.

With GGGGGCCACAGCAGAAGCGUUCACGUCGCGGCCCCUGUCAGAUUCUGGUAAAUCUGCGAAUUCUGCUUU [G50A G68U], the self-cleavage is 1.02.

For the variant GGGGGCCACAGCAGAAGCGUUCACGUCGCGGCCCCUGUCAGAUUCUGGUCAAUCUGCUAAUUCUGCUGU [G50C G58U], the self-cleavage stood at 0.995.

For the variant GGGGGCCACAGCAGAAGCGUUCACGUCGCGGCCCCUGUCAGAUUCUGGUCAAUCUGCCAAUUCUGCUGU [G50C G58C], the self-cleavage amounted to 0.963.

As for GGGGGCCACAGCAGAAGCGUUCACGUCGCGGCCCCUGUCAGAUUCUGGUAAAUCUGCGAAUUCAGCUGU [G50A U64A], the self-cleavage was determined as 0.937.

In the case of GGGGGCCACAGCAGAAGCGUUCACGUCGCGGCCCCUGUCAGAUUCUGGUCAAUCUGCGAAUUCUGCCGU [G50C U67C], the self-cleavage came to 0.994.

Consider GGGGGCCACAGCAGAAGCGUUCACGUCGCGGCCCCUGUCAGAUUCUGGUCAAUCUGCGAAUUCUGCGGU [G50C U67G], for which the self-cleavage is 1.02.

As to GGGGGCCACAGCAGAAGCGUUCACGUCGCGGCCCCUGUCAGAUUCUGGUCAAUCUGCGAAUCCUGCUGU [G50C U62C], the self-cleavage was 0.763.

With GGGGGCCACAGCAGAAGCGUUCACGUCGCGGCCCCUGUCAGAUUCUGGUCAAUCUGCGAAUACUGCUGU [G50C U62A], the self-cleavage is 0.968.

On to GGGGGCCACAGCAGAAGCGUUCACGUCGCGGCCCCUGUCAGAUUCUGGUCAAUCUGCGAAUGCUGCUGU [G50C U62G], for which the self-cleavage came to 0.755.

For the origin of these results see the RNAGym collection of RNA variant scans (doi:10.7554/elife.80360).
